Positions count from the first letter of the chain named.
Tests used:
[1] = molecular target: T1, hp75NTR-His (human, UniProt P08138 29-250); test: SPR, target amine-coupled on CM5 chip, 25 C, pH 7.4
T1 construct: extracellular domain; Immobilised on a CM5 chip by amine coupling; also called human p75NTR
T1 sequence (looked up): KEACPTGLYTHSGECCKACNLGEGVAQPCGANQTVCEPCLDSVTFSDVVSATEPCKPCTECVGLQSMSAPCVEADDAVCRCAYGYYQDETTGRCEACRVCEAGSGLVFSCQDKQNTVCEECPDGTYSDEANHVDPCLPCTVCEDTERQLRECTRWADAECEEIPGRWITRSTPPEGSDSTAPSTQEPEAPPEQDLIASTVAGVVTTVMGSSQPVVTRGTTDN

[2] = molecular target: T2, hTrkC-ECD-His (human, UniProt Q16288 32-429); test: as above
T2 construct: extracellular domain; Immobilised on a CM5 chip by amine coupling; also called human TrkC

[3] = molecular target: T3, hTrkB-Extracellular Domain-poly C-terminal Histidine tagged (human, UniProt Q16620 32-430); test: as above
T3 construct: extracellular domain; Immobilised on a CM5 chip by amine coupling; also called hTrkB-ECD-His; human TrkB
T3 sequence (Q16620 32-430): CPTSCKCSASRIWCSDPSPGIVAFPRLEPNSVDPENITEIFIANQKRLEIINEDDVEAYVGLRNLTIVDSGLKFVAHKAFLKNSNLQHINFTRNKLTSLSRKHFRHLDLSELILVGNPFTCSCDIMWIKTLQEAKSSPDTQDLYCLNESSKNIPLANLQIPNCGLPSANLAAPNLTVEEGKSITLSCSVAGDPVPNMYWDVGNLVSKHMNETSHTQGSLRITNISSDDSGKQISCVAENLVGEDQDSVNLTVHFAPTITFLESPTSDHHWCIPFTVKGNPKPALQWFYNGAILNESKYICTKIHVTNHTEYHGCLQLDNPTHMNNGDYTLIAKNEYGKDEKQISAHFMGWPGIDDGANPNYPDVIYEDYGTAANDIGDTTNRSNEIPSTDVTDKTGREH

[4] = molecular target: native rat TrkA on PC12 cells (rat, UniProt P35739 33-799); test: cell-based or functional assay
native rat TrkA on PC12 cells, sequence (P35739 33-799): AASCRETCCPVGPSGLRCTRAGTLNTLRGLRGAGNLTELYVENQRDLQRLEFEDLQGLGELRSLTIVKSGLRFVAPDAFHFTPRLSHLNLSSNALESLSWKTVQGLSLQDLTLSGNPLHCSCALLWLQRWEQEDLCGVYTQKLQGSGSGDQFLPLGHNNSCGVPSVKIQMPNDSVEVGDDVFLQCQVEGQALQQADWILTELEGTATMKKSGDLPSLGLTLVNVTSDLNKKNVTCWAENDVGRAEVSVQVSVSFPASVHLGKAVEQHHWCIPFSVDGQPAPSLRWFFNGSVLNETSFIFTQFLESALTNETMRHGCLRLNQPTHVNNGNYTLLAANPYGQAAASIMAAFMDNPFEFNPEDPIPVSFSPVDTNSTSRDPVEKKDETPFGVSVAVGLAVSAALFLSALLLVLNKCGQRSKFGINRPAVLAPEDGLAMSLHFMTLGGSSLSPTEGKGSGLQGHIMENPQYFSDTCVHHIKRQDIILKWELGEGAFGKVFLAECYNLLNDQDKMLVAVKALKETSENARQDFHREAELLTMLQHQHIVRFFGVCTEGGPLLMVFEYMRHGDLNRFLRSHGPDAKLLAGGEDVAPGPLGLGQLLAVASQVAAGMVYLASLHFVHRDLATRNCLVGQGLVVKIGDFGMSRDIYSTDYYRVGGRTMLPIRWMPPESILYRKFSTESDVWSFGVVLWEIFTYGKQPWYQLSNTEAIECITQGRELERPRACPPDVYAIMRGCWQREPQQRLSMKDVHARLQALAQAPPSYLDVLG

[5] = molecular target: T4, native human TrkA expressed endogenously on SH-SY5Y cells (human, UniProt P04629 33-796); test: flow cytometry on SH-SY5Y cells, anti-human IgG Fc secondary, MFI, average of three experiments
T4 construct: whole, on cells
T4 sequence (P04629 33-796): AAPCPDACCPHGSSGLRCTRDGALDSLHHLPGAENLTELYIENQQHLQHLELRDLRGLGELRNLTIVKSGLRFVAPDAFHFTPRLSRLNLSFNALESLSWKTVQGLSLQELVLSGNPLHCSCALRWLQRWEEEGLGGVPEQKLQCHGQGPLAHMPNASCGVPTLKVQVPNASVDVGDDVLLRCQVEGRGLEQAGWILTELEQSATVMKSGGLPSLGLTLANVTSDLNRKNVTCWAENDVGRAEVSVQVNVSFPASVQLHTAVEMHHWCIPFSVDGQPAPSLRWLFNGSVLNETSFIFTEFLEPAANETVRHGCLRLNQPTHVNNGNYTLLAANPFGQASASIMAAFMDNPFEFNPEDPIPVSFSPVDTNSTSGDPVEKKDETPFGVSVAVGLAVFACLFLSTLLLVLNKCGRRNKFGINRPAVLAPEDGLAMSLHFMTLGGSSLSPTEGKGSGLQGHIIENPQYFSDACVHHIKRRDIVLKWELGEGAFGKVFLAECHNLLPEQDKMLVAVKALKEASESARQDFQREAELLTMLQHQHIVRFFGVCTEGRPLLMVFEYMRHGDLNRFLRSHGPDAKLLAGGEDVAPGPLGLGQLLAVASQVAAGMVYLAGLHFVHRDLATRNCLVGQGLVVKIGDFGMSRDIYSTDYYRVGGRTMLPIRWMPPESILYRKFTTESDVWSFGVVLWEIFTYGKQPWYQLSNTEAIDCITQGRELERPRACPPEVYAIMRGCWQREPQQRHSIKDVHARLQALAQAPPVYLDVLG

[6] = molecular target: T5, recombinant human TrkA (human, UniProt P04629 33-423, limits assumed); test: SPR, antibody captured on protein A chip, TrkA as analyte, single concentration, 1:1 model
T5 construct: also called hTrkA
T5 sequence (P04629 33-423 limits assumed): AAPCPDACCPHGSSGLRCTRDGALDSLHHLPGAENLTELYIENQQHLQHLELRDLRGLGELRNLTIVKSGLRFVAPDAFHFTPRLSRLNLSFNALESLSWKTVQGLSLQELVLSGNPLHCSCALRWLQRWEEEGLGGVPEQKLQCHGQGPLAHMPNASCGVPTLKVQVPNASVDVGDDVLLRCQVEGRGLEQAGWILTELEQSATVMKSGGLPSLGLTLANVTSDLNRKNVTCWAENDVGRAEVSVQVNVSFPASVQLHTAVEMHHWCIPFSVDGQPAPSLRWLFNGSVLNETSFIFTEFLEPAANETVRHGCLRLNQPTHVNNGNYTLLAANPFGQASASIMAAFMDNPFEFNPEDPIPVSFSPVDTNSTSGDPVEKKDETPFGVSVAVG

B1: anti-TrkA antibody Ab82, full length (antibody, V domains shown)
VH: QVQLQESGPGLVKPSGTLSLTCAVSGGSISSSNWWTWVRQPPGKGLEWIGEIYHRGNRNYNPSLKSRVTISVDKSKNQFSLKLSSVTAADTAVYYCARAPWFDYWGQGTLVTVSS
VL: SSELTQDPAVSVALGQTVRITCQGDALRSYYASWYQQKPGQAPVLVIYGKGNRPSGIPDRFSGSSSGNTASLTITGAQAEDEADYYCASQASSGNHLIFGGGTKLTVLG
notes: also called full length Ab82; full-length antibody
B1: no binding (tested: 1 nM) [1]; no binding (tested: 1 nM) [2]; no binding (tested: 1 nM) [3]. For the same binder, the Akt phosphorylation in PC12 cells, EC50 [4] was 0.501 nM, the Erk phosphorylation in PC12 cells, EC50 [4] was 0.54 nM and the TrkA receptor phosphorylation in PC12 cells (AlphaLISA p-TrkA Tyr674/675), EC50 [4] was 0.341 nM. It also gave a neurite outgrowth in PC12 cells at 138 hours, EC50 [4] of 0.0858 nM and an EC50 [5] of 275 nM.

B2: anti-TrkA antibody Ab142 (antibody, V domains shown)
VH: EVQLQESGPGLVKPSGTLSLTCAVSGGSISSSNWWTWVRQPPGKGLEWIGEIYHRGNRNYNPSLKSRVTISVDKSKNQFSLKLSSVTAADTAVYYCARAPWFDYWGQGTLV
VL: SSELTQDPAVSVALGQTVRITCQGLSLRSYYASWYQQKPGQAPVLVIYGKNKRPSGIPDRFSGSSSGNTASLTITGAQAEDEADYYCNSQASSGNHLIFGGGTKLT
B2 was tested, and the “Akt pathway activation (pEC50)” value [4] was 9.53 pEC50, the “Erk pathway activation (pEC50)” value [4] was 9.54 pEC50 and the “Neurite outgrowth (pEC50)” value [4] was 9.97 pEC50. It also gave a Kd [6] of 0.999 nM and a koff [6] of 0.000254 s⁻¹.

B3: anti-TrkA antibody Ab147 (antibody, V domains shown)
VH: B2 VH
VL: B2 VL with N51G, K52N, A91D
For B3, the “Akt pathway activation (pEC50)” value [4] was 9.25 pEC50, the “Erk pathway activation (pEC50)” value [4] was 9.11 pEC50 and the “Neurite outgrowth (pEC50)” value [4] was 10.1 pEC50. The Kd [6] was 1.19 nM, the koff [6] was 0.000314 s⁻¹ and the kon [6] was 264000 M⁻¹ s⁻¹.

B4: anti-TrkA antibody Ab145 (antibody, V domains shown)
VH: B2 VH
VL: B2 VL with N88A
With B4 the “Akt pathway activation (pEC50)” value [4] was 9.68 pEC50, the “Erk pathway activation (pEC50)” value [4] was 9.89 pEC50 and the “Neurite outgrowth (pEC50)” value [4] was 10.1 pEC50. For the same binder, the Kd [6] was 1.5 nM and the koff [6] was 0.000299 s⁻¹.

— patent US20250122291A1 (CEPHALON, published 2025)
